Experimental data reported in paper PMC3902906.

Key:
[1] = biological target: CsoR^Sl R57A (copper sensitive operon repressor from Streptomyces lividans, R57A mutant) (Streptomyces lividans 1326); assay: SEC; analytical gel filtration column, retention volume of the purified mutant protein alone; data not shown
[2] = biological target: CsoR^Sl Q81A (copper sensitive operon repressor from Streptomyces lividans, Q81A mutant) (Streptomyces lividans 1326); assay: as above
[3] = biological target: CsoR (CsoRSl) wild type (Streptomyces lividans 1326) (UniProt D6EK73); assay: ITC; settings: ITC: 10 mM HEPES, 150 mM NaCl, pH 7.5, 25 C, 100 uM DNA into 10 uM CsoR tetramer, EMSA: same buffer, room temperature, 30 min, 6% PAGE in TBE, SEC: same buffer
[4] = biological target: CsoR^Sl R129A (copper sensitive operon repressor from Streptomyces lividans, R129A mutant) (Streptomyces lividans 1326); assay: SEC; analytical gel filtration column, retention volume of the purified mutant protein alone; data not shown
[5] = biological target: CsoR^Sl R54A (copper sensitive operon repressor from Streptomyces lividans, R54A mutant) (Streptomyces lividans 1326); assay: as above
[6] = biological target: CsoR^Sl R132A (copper sensitive operon repressor from Streptomyces lividans, R132A mutant) (Streptomyces lividans 1326); assay: as above

Substance | Kd [3] [nM] | also measured
CsoR^Sl R57A (copper sensitive operon repressor from Streptomyces lividans, R57A mutant) (natural protein) | – | stoichiometry N [1]: 4
CsoR^Sl Q81A (copper sensitive operon repressor from Streptomyces lividans, Q81A mutant) (natural protein) | – | stoichiometry N [2]: 4
CGGACAAATACCCCTGGTGGGTATATATGG (double strand) [csoR-EXT] | 74 | –
TACCCCCTAGGGGTAT (double strand) [copZA1-CON] | 971 | –
CsoR^Sl R129A (copper sensitive operon repressor from Streptomyces lividans, R129A mutant) (natural protein) | – | stoichiometry N [4]: 4
CGTTGGGTACCCCCTAGGGGTATATATGG (double strand) [copZA1-GTA down] | 87 | –
CsoR^Sl R54A (copper sensitive operon repressor from Streptomyces lividans, R54A mutant) (natural protein) | – | stoichiometry N [5]: 4
TATACCCCCTAGGGGTA (double strand) [copZA2-CON] | 107 | –
ATACCCCTGGTGGGTATAT (double strand) [csoR-CON] | 120 | –
CGTTGGATACCCCCTAGGGGTATACATGG (double strand) [copZA1-GTA up] | 96 | –
GCCTTTATACCCCCTAGGGGTAAGGTGGG (double strand) [copZA2-EXT] | 57 | –
CGTTGGGTACCCCCTAGGGGTATACATGG (double strand) [copZA1-EXT] | – | Kd ([3]; apo, reverse titration (protein into DNA), N 0.86): 112 nM
CsoR^Sl R132A (copper sensitive operon repressor from Streptomyces lividans, R132A mutant) (natural protein) | – | stoichiometry N [6]: 4
